The data set can be described thus: label from the status in PepcDB records.
For “MTQLFPGPIVRTPGLAELDARARDIFRRVVESYLETGEPVGSRTISKGGVALSPASIRNTMQDLAQLGLLDAPHTSAGRMPTHAGLRMFVDGFLEVGDVAEQEKRAIEARLAVKGRSFEEALAEASSILSGLAGGAGIVVTPVREGGVKHVEFVPLGGGQVLAVMVFEDGQVENRLMRQAPGVTPSALQEASNFLNARLRGRTLTEARTEMGGELDAARRQLNETAARLVEDGLAAWSGGEGDARSLIVRGQANLLADARAREDIDRVRQLFDDLSRRAQLIGLLDDVRDAEGVRIYIGAETRLFSLSGSSVIAAPYMTGRQKVLGAIGVIGPARLNYARVIPLVDYTARVLGRMMDG”, the protein production entry is on record as “failed”.

For “MRGEFYQQLTNDLETARAEGLFKEERIITSAQQADITVADGSHVINFCANNYLGLANHPDLIAAAKAGMDSHGFGMASVRFICGTQDSHKELEQKLAAFLGMEDAILYSSCFDANGGLFETLLGAEDAIISDALNHASIIDGVRLCKAKRYRYANNDMQELEARLKEAREAGARHVLIATDGVFSMDGVIANLKGVCDLADKYDALVMVDDSHAVGFVGENGRGSHEYCDVMGRVDIITGTLGKALGGASGGYTAARKEVVEWLRQRSRPYLFSNSLAPAIVAASIKVLEMVEAGSELRDRLWANARQFREQMSAAGFTLAGADHAIIPVMLGDAVVAQKFARELQKEGIYVTGFFYPVVPKGQARIRTQMSAAHTPEQITRAVEAFTRIGKQLGVIA”, the protein production result is listed as “not failed”.

As to “EPAPRGFLLIGANRVAREIGQALARYDRRVLMTDSNWEYISQVRMMGLDYYYGNPISSHADDNLNMIGIGQVVALTPDQHFNIMACMQF”, the protein production entry is “failed”.

With “MDLGILSQLLILLFVSMLLGVLFSKFKIPDVVAYILTGVLVGNGFLKIVSPSVPISDIESVSLFFIILAIGVEANTEYIYGNVRRSIILTISSFIAPSMLGFLYLQAVAHLPIIPAFVLSMSVGVPSISIISVLLMRYDLLKLNAGRLILSSVVLTDTSAFIILSSTYESVTKVLISFGFVVLFLFAIWLFDILIRRRAGRIIEWISRRETDNNMEYILFSLVIIAGLLVSTLFEFIGITYVLGAFYAGILIHEASIGQKYHKIILNTIKRINDSFFIPLFFSIAGISMILPKISIFMIFLPALLILMGASGGLTYLVSHRLIRSLEPIKVVSILGGRGAVGVIIATIAFQSGIIDVAVYSLALIGTVIFSLVMTPLVSIGNAPSQNDDVRYS”, the protein production entry is “failed”.

Regarding “MLLQANRGLGLSAHIIDHCNLILKFPEGTNSTWYNAQFKVFEALEFKYNVCEAVLLWEQYRNMTTVLTREYLDVRPDGWLDYAAMRIAQLGADKCYNRTLCEEHLNVILPAKPPFHPRQFHKCAVVGNSGDLLKTEFGEEIDSHDAVFRDNEAPVNEKYAKYVGVKRDFRLVVRGAARNMIKILNGSDNEVLIIKSVTHRDFNEMIKRIPNPVYLFQGIVLRRGAKGTGMKSIELALSMCDIVDIYGFTVDPGYTEWTRYFSTPRKGHNPLQGRAYYQLLECLGVQITC”, the protein production result is “failed”.

With “MSLGAFLDKPKTEKHNAHGAGNGLRYGLSSMQGWRVEMEDAHTAVVGIPHGLEDWSFFAVYDGHAGSRVANYCSTHLLEHITTNEDFRAAGKSGSALELSVENVKNGIRTGFLKIDEYMRNFSDLRNGMDRSGSTAVGVMISPKHIYFINCGDSRAVLYRNGQVCFSTQDHKPCNPREKERIQNAGGSVMIQRVNGSLAVSRALGDYDYKCVDGKGPTEQLVSPEPEVYEILRAEEDEFIILACDGIWDVMSNEELCEYVKSRLEVSDDLENVCNWVVDTCLHKGSRDNMSIVLVCFSNEGHHHHHH”, the protein production result was “not failed”.

As for “ARPCIPKSFGYSSVVCVCNATYCDSFDPPTFPALGTFSRYESTRSGRRMELSMGPIQANHTGTGLLLTLQPEQKFQKVKGFGGAMTDAAALNILALSPPAQNLLLKSYFSEEGIGYNIIRVPMASCDFSIRTYTYADTPDDFQLHNFSLPEEDTKLKIPLIHRALQLAQRPVSLLASPWTSPTWLKTNGAVNGKGSLKGQPGDIYHQTWARYFVKFLDAYAEHKLQFWAVTAENEPSAGLLSGYPFQCLGFTPEHQRDFIARDLGPTLANSTHHNVRLLMLDDQRLLLPHWAKVVLTDPEAAKYVHGIAVHWYLDFLAPAKATLGETHRLFPNTMLFASEACVGSKFWEQSVRLGSWDRGMQYSHSIITNLLYHVVGWTDWNLALNPEGGPNWVRNFVDSPIIVDITKDTFYKQPMFYHLGHFSKFIPEGSQRVGLVASQKNDLDAVALMHPDGSAVVVVLNRSSKDVPLTIKDPAVGFLETISPGYSIHTYLWHRQ”, the protein production entry was “not failed”.

On to “EYSENNAPLFIRAVNSVASTTGAPPWANLVSILEEKNGADPELLVYTVTLINKTLAALPDQDSFYDVTDALEQQGMEALVQRHLGTAGTDVDLRTQLVLYENALKLEDGDI”, for which the protein production result is on record as “failed”.

With “MGAAKNIWALANAEDAANDAEQIPYSSFVVDTSLPLPLMIPRIIELCKDLFKNWGELDDSLFSVERVSGGITNLLLKVSVKEDTNKEVSVTVRLYGPNTEYVINREREILAIKYLSAAGFGAKLLGGFGNGMVQSFINARTLEPSDMREPKIAAQIARELGKFHKVDIPGSKEPQLWVDILKFYEKASTLTFEEPDKQKLFETISFEELHKEIIELREFTGLLNAPVVFAHNDLLSGNFMLNDEEEKLYLIDFEYGSYNYRGFDIGNHFNEYAGYDCDYSLYPSKEEQYHFIKHYLQPDKPDEVSIAEVESVFVETDAYKLASHLYWAIWAIIQARMSPIEFEYLGYFFLRYNEYKKQKPLTFSLVTSHLSASL”, the protein production result is given as “failed”.

In the case of “MGEEATAVAAAGVRPELVREAEVSLLECKVCFERFGHWQQRRPRNLPCGHVVCLACVAALAHPRTLGLECPFCRRACRACDTSDCLPVLHLLELLGSTLHASPAALSAAPFAPGTLTCYHAFGGWGTLVNPTGLALCPKTGRVVVVHDGKRRVKIFDSGGGGAHQFGEKGDAAHDVKYPLDVAVTNDCHVVVTDAGDCSLKVFDFFGQIKLVVGKQFSLPWGVEITPHNGVLVTDAEAGTLHLLEADFPEGVLRRIERLQAHLCSPRGLAVSWLTGAIAVLEHPCAFGRTGCNNTRVKVFNSTMQLIGQVDSFGLNLLFPSKVTASAVTFDHQGNVIVADTSGPAIVCLGKPEEFPALKPIITHGLSRPVALAFTKENSLLVLDTASHSIKVFKVMEGNGG”, the protein production result was “failed”.

Turning to “MKDTFRLENQTIYFGTERAISASPQTIWRYLTETDKLKQWFPELEIGELGVNGFWRFILPDFEETMPFTDYAEEKYLGVTWDTGIIYFDLKEQAPHQTLLVFSESLPENFTTPRHKDIAGWSIVLNRLKQVVETPDAAPEKIDFPQIENHYLEKLTNLEN”, the protein production entry is reported as “not failed”.

As to “MAEHAPHFTITPLGGLGEIGLNCQVWSTADSTVLIDCGLMFPDDYHLGVDVVIPRFDHILQQRDKVRGIILTHGHEDHIGALPWLVPHLRGIPIFGSRFTLALVEHKLREHGLADRVEFVPVTPGTPLALGDMTFHFLPVCHSIIEGYAVGVETPVGRVLHTGDFKIDPHPLEGSGTDLDLFRSFAGDEGVRLLLSDSTNIEREGHSLPEREILSSFRHIFTEAQGRIVITLFSSHIQRIQEVFDLAAEFGRTVVVSGRSLMTNIELAREHGFLRVPPALHMDAAGLPPVADRDMVLLVTGSQGEPLSALSRITMGEHKHLTIHEGDTVVMSSRIIPGNARAITRLINQIYRLGAEVYYDKFRAIHASGHAHRDELRAMIETMRPQCFVPVHGEYRHLVKHARLAQECGVAPERAFILENGDPLTLLPQGVRLGERIHVESILVDGKGVGDVGHSVLKERHILGGEGMVIVVLVVDEVTWDVLHGPEMLSKGFVFEQHYNHVLEDAKCIVLDIFENIPPGETERLQDRIRSALRRFFRKVLERDPIVVPVITTI”, the protein production result is given as “failed”.

On to “MLDASPATARSPLEKRRPNVCREEQLTLVRLSRPCAQAFIDTIQFWKQGCSGPRWCVGYERRIRYYIIYRHVYATEHQTVFRCCPGWIQWDDEPGCFSSLSSLGTHFSGRECSYQDTRQCLCSQGFHGPHCQYDINECAVDNGGCRDRCCNTIGSYYCRCQAGQKLEEDGRGCEDVDECAVVNGGCQQRCINTLGTFHCECDTGYRRHADERTCIRIELEIVNICEKNNGGCSHHCEPAIGGAHCSCNHGHQLDTDGKTCIALDEQLEEEEEEIDILRFPGRLAQNPPQPFPYLDPSLTASYEDEDNDDADSEAEGEVQGLTALYRVVCLDGTFGLDCSLSCEDCMNGGRCQEGKSGCLCPAEWTGLICNESSVLRTGEDQQAPAGCLKGFFGKNCKRKCHCANNVHCHRVYGACMCDLGRYGRFCHLSCPRGAYGASCSLECQCVEENTLECSAKNGSCTCKSGYQGNRCQEGTIR”, for which the protein production entry is given as “failed”.

Values taken from a protein production outcome set (Wang et al. 2014).
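Further: failed if final PepcDB status was selected cloned or expressed and not failed if soluble or beyond.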
